The values below come from patent publication US20110014224A1.

For the experiment, the target named is HLA-B1501 (human). The experiment can be described thus: competition with radiolabeled probe peptide for purified HLA, plate capture, cpm.

B1: Mtb8.4 5-15 peptide … (peptide)
peptide: AVINTTCNYGQ
modifications: not checked
A word on the IC50: it is the concentration that gives 50% inhibition. Lower therefore signals inhibition by little substance. For B1, the IC50 was determined as 0.01 µM.
